Assay results taken from patent CN116655791A (ZHEJIANG CHUQI BIOLOGICAL TECH CO LTD, dated 2023).

Target: T1, 人泌乳素受体-ECD蛋白 (25-234aa, Factor Xa site, 6xHis) (human)
T1 chain: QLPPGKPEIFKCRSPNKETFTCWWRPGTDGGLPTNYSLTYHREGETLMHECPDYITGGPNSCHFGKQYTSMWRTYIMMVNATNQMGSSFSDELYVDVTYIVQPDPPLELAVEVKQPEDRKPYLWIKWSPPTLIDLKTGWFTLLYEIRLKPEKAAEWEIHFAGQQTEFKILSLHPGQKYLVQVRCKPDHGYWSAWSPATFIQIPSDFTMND
Test: indirect ELISA on coated PRLR-ECD

B1: 抗泌乳素受体的纳米抗体融合蛋白CQ24-Fc (Fc fusion)
chain: SQVQLVESGGGSVQAGGSLRLSCVASGYTRRGNCLGWFRQAPGKEREGVASIYASSGWTSYADSVKGRFTISLDNAKTMVYLQMNSLNPEDTAMYFCAAADTGLCGLGARIYSYWGQGTQVTVSSDKTHTCPPCPAPEAAGGPSVFLFPPKPKDTLMISRTPEVTCVVVDVSHEDPEVKFNWYVDGVEVHNAKTKPREEQYNSTYRVVSVLTVLHQDWLNGKEYKCKVSNKALPAPIEKTISKAKGQPREPQVYTLPPSREEMTKNQVSLTCLVKGFYPSDIAVEWESNGQPENNYKTTPPVLDSDGSFFLYSKLTVDKSRWQQGNVFSCSVMHEALHNHYTQKSLSLSLGK
notes: the signal peptide is left out here; also called CQ24纳米抗体; CQ24-VHH
EC50: 4.6 ng/mL
